Series [1] concerns DnaA (Escherichia coli). The conditions noted are these: minimum DnaA concentration giving plateau in origin reconstitution assay; ATP, Mg; gel shift and filter binding mentioned without values.
Series [2] relates to DNA polymerase III core (alpha-epsilon-theta) (Yersinia pestis).
Series [3] relates to DnaG primase (Yersinia pestis).
In series [4] the test system is PolC (Streptococcus pyogenes). As to conditions: reconstitution assay; template inferred.
The target of series [5] is DNA polymerase III alpha-epsilon (DnaE/DnaQ) (Pseudomonas aeruginosa) (UniProt Q9HXZ1+G3XD54). The conditions noted are these: E. coli DnaG-primed holoenzyme assay, 30 C.
Series [6] relates to DnaG primase (Pseudomonas aeruginosa). The conditions noted are these: reconstituted P. aeruginosa holoenzyme assay, 22 C.
Series [7] addresses T1, P. aeruginosa χ subunit (untagged) (Pseudomonas aeruginosa, UniProt O68823 2-142).
T1 construct: holC, PA3832, 142 amino acids; also called HolC; chi
T1 sequence: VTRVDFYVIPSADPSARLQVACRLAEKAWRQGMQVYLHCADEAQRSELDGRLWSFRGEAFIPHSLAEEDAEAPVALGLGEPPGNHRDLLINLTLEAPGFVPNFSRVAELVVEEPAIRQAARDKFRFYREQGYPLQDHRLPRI
As to the kind of experiment: co-expression and co-purification (ammonium sulfate, Q Sepharose).

For series [8], the target named is T2, N-terminally hexa-His-tagged P. aeruginosa χ (Pseudomonas aeruginosa, UniProt O68823 2-142).
T2 construct: also called immobilized tagged P. aeruginosa χ; N-terminally His-tagged HolC; not shown: N-terminal hexa-His tag encoded by vector pA1-NB-KpnI
T2 sequence: T1 sequence
Description: Ni-NTA magnetic bead pull-down with immobilized His-tagged χ, imidazole elution.

For the molecule “M13 ssDNA with 306-nt insert containing DnaA-box hairpin”, the activity in series [1] came to 76 nM.
M13Gori ssDNA: the activity in series [2] was determined as 1.1e+07 U/mg; in series [3] it was 5.8e+06 U/mg; in series [4], 500000 U/mg; in series [5] it was 4.1e+06 U/mg; in series [6], 594000 U/mg.

B1: PA4679N45 protein, P. aeruginosa DNA polymerase III holoenzyme ψ subunit (other)
chain: LIEEQRRRAFLGAMQITSWLPRQPLPFAAPSRPELLETPPREEPAVPVRARAAIDAPQARVPQAEAPASAPSVAPAAPVEGRGIPISLPKPGAPAAKKAEPVAPVEEAPAESPAVQAPPPRFALQLLQAGSCTLLVELPTGEPFASRDPGYLLLRDLLRAAGLPDSPRLIGEPVRWPLLARGNLDQGPQAALEFVQSFVAARMEESERSRCLWLVGLPAIRFAGEGDEGSLFRELQVDGLGATWAVPGLEALMEEPALKGELWRAMRRVRQRWSSEIQ
notes: also called HolD; psi
In the case of B1, the binding result in series [7] and in series [8] was “binds” each time.
